For data set [1], the target named is BBCEC monolayers. Particulars: −saponin, cited from earlier work.
For the next data set, the system named is LRP1B. The data set is described as follows: RT-PCR after p97 treatment in MG1391 fibroblast cells: LRP1B. To be noted: fibroblast cell line MG1391, RT-PCR (FIGS. 40 and 41). The format is cell-based. How it is done:
FIG. 39 show the expression of members of the LDL receptor family in MG1391. RT-PCR. RT-PCR was performed for members of the LDL-R family: LRP, LRP1B, megalin, LDL, VLDL, LRP8, LR11, LRP5 and cubulin. DNA (cDNA) synthesis was performed with 1 μg of total RNA using a cDNA one step synthesis kit (Invitrogen, USA) following the manufacturer's protocol. (1× of reaction mix, RNA 1 μg, 0.2 μM of both primers, 1 μl of RT/Platinum Tag mix). The cDNA generated was amplified using primers produced with MacVector 7.0 (Oxford molecular Ltd, Oxford, UK). All the subsequent assays were then performed under conditions that produced amplifications of cDNA within a linear range. RT inverse-transcription was performed at 50° C. for 30 min. PCR amplification for 35 or 40 cycles for all was performed as follows: denaturation at 94° C. for 30 s, annealing at 60° C. for 30 s and extension at 72° C. for 1 min. Finalisation stage was performed at 72° C. for 5 min. Tubes containing all the ingredients except templates were included in all runs and served as negative controls. The amplified PCR products were electrophoresed on a 1% agarose gel in TAE (40 mM Tris, […], 1 mM EDTA, […] Ethidum bromide) and were visualized under ultraviolet light followed by densitrometric analysis.

In the next data set the test system is U-87 cells. In words: Morphology of U-87 cells after p97 treatment. Type of data set: cell-based, human. To be noted: FIG. 33.
Data set [2] concerns BBCEC monolayers. The data set is described as follows: Transcytosis of bovine [125I]-lactoferrin across BBCEC monolayers, inhibition by p97. Particulars: 200-fold molar excess of unlabelled p97, 37° C. (FIG. 16c). The format is cell-based.
The nature of data set [3]: Brain uptake one hour after i.v. injection. The format is in vivo. To be noted: mice, one hour after i.v. injection of [125I]-protein (FIG. 11a). The method, then: FIG. 11 examines the accumulation and transcytosis of p97. FIG. 11a, of [^125I]-p97, [^125I]-BSA and [^125I]-holo-transferrin one hour after i.v. injection. The radioactivity in brain was compared between the three compounds. (n=3); FIG. 11b, Accumulation of p97 and transferrin into the mouse brain parenchyma. In situ brain perfusion was performed with human [^125I]-p97 or [^125I]-holo-transferrin at a final concentration of 10 nM via a catheter inserted in the right common carotid artery. The volume of distribution (VD) of [^125I]-proteins were obtained in the whole brain homogenate (white bars), in brain capillaries (solid bars) and in brain parenchyma (hatched bars) after isolation of the right hemisphere and capillary depletion. Results were obtained for p97 (n=10) and for holo-transferrin (n=6); FIG. 11c, Transcytosis of p97 across BBCEC monolayers. Transcytosis experiments were performed 37° C. (open circles) and 4° C. (closed circles) with BBCEC monolayers. […] Apical-to-basal and basal-to-apical transport of [^125I]-p97 (25 nM) was measured for 2 hrs at 37° C. At the end of the experiment, [^125I]-p97 was assessed in the lower or upper chambers of each well by TCA precipitation (n=4).
A. Brain uptake and in situ brain perfusion. […] The serum and brain samples were collected and the levels of radioactivity were measured. […]

In general, Kd refers to the equilibrium constant for the complex coming apart.

Where two headings read alike, the source gives them in different places.

B1: lactoferrin: lactoferrin (Lf), LRP ligand used as competitor (protein, UniProt P02788 20-710, looked up)
Lactotransferrin: GRRRSVQWCAVSQPEATKCFQWQRNMRKVRGPPVSCIKRDSPIQCIQAIAENRADAVTLDGGFIYEAGLAPYKLRPVAAEVYGTERQPRTHYYAVAVVKKGGSFQLNELQGLKSCHTGLRRTAGWNVPIGTLRPFLNWTGPPEPIEAAVARFFSASCVPGADKGQFPNLCRLCAGTGENKCAFSSQEPYFSYSGAFKCLRDGAGDVAFIRESTVFEDLSDEAERDEYELLCPDNTRKPVDKFKDCHLARVPSHAVVARSVNGKEDAIWNLLRQAQEKFGKDKSPKFQLFGSPSGQKDLLFKDSAIGFSRVPPRIDSGLYLGSGYFTAIQNLRKSEEEVAARRARVVWCAVGEQELRKCNQWSGLSEGSVTCSSASTTEDCIALVLKGEADAMSLDGGYVYTAGKCGLVPVLAENYKSQQSSDPDPNCVDRPVEGYLAVAVVRRSDTSLTWNSVKGKKSCHTAVDRTAGWNIPMGLLFNQTGSCKFDEYFSQSCAPGSDPRSNLCALCIGDEQGENKCVPNSNERYYGYTGAFRCLAENAGDVAFVKDVTVLQNTDGNNNEAWAKDLKLADFALLCLDGKRKPVTEARSCHLAMAPNHAVVSRMDKVERLKQVLLHQQAKFGRNGSDCPDKFCLFQSETKNLLFNDNTECLARLHGKTTYEKYLGPQYVAGITNLKKCSTSPLLEACEFLRK
B1: the Kd at BBCEC monolayers [1] (Site 1, published value) was 35 nM; on BBCEC monolayers [1] (Site 2, published value) it was 1900 nM.

B2: p97: recombinant human melanotransferrin (p97), provided by Synapse Technologies (protein, UniProt P08582 20-709, looked up)
Melanotransferrin: GMEVRWCATSDPEQHKCGNMSEAFREAGIQPSLLCVRGTSADHCVQLIAAQEADAITLDGGAIYEAGKEHGLKPVVGEVYDQEVGTSYYAVAVVRRSSHVTIDTLKGVKSCHTGINRTVGWNVPVGYLVESGRLSVMGCDVLKAVSDYFGGSCVPGAGETSYSESLCRLCRGDSSGEGVCDKSPLERYYDYSGAFRCLAEGAGDVAFVKHSTVLENTDGKTLPSWGQALLSQDFELLCRDGSRADVTEWRQCHLARVPAHAVVVRADTDGGLIFRLLNEGQRLFSHEGSSFQMFSSEAYGQKDLLFKDSTSELVPIATQTYEAWLGHEYLHAMKGLLCDPNRLPPYLRWCVLSTPEIQKCGDMAVAFRRQRLKPEIQCVSAKSPQHCMERIQAEQVDAVTLSGEDIYTAGKTYGLVPAAGEHYAPEDSSNSYYVVAVVRRDSSHAFTLDELRGKRSCHAGFGSPAGWDVPVGALIQRGFIRPKDCDVLTAVSEFFNASCVPVNNPKNYPSSLCALCVGDEQGRNKCVGNSQERYYGYRGAFRCLVENAGDVAFVRHTTVFDNTNGHNSEPWAAELRSEDYELLCPNGARAEVSQFAACNLAQIPPHAVMVRPDTNIFTVYGLLDKAQDLFGDDHNKNGFKMFDSSNYHGQDLLFKDATVRAVPVGEKTTYRGWLGLDYVAALEGMSSQQC
For the molecule B2, the “Expression of LRP1B in MG1391 cells” value in the data set with LRP1B is “particularly induces the expression”. In addition, in the data set with U-87 cells, the “Effect on the morphology of U-87 cells” value is “no discernable effect on the morphology”. The “Inhibition of the transcytosis of bovine [125I]-lactoferrin” value in the data set on BBCEC monolayers [2] is “more than 75%”. The Brain/serum ratio in data set [3] is given as 0.025.
